Here are results for one substance from paper PMC8264304.

In this data set the test system is MexR (CSP18) (Pseudomonas aeruginosa clinical isolate CSP18). As to the kind of experiment: MST. The settings on record: MST: 10 mM Tris, 1 mM DTT, room temperature.

Usually Kd stands for the equilibrium constant for the complex coming apart. Lower therefore signals higher affinity.

The substance mexR-mexA intergenic region displayed a Kd of 1.1 µM.
